Assay results: the nanobody polyreactivity screen of Harvey et al. (2022)

Test: yeast display, Sf9 membrane polyspecificity reagent, FACS + sequencing; frameworks hold sequencing errors
Procedure, shortened: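 Using colony PCR, genes from sorted yeast display clones were amplified, then sequenced on MiSeq at 2 × 250 and filtered by CDR length. The clones had been stained with 10% biotinylated, detergent-solubilized Sf9 membrane reagent for 1 hour at 4 °C and sorted by FACS into low and high (top ~1%) gates on anti-HA and streptavidin fluorescence. Polyreactivity labels come from the gate of origin.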

Sequence | polyreactivity (PSR sort gate)
QVQLVESGGGLVQAGGSLRLSCAASGRTFYSNAMGWYRPAPGKERELGATISSGGSTNYADSVKGRFTISRDTAKNTVYLQINSVKPADTAVYYCDTRPDRINDYWGQGTQVTVSS | low polyreactivity
QVQLVESGGGLVQAGGSLRLSCAASGRTFYSNAMGWYRQAPGKERELVAAITSGGSTNYADSVKGRFTISRDNAKNTVYLQMNSLKPEDSAVYYCAVRGYWTIRSRRYYYWGQGTQVTVSS | high polyreactivity
QVQLVESGGGLVQAGGSLRLSCAASGRTFYSNAMGWYRQAPGKERELVAAITSTDDSTYYADSVKGRFTISRDNAKNTVYLQMNSLKPEDNAVYYCNRDGLIAIRGLWWVEYDYWGQGTQVTVSS | low polyreactivity
QVQLVESGGGLVQAGGSLRLSCAASGRTFYSNAMGWYRQAPGKERELVAGINIGGGSTYYADSVKGRFTISRDNAKNTVYLQMNSLKPEDTAVYYCAARRWGAYRHGYWGQGTQVTVSS | high polyreactivity
QVQLVESGGGLVQAGGSLRLSCAASGRTFYSYAMGWYRQAPGKERELVAAINTSGGRTHYADSVKGRFTISRDNAKNTVYLQMNCMKPEDTAVYYCAKLARSGTLTYYYWGQGTQVNVSS | high polyreactivity
QVQLVESGGGLVQAGGSLRLSCAASGRTFYSYAMGWYRQAPGKERELVAAITSDGGTYYADSVKGRFTISRDNAKNTVYLQMNSLKPEDTAVYYCNAVGGWVTHWLLREGDYWGQGTQVTVSS | low polyreactivity
QVQLVESGGGLVQAGGSLRLSCAASGRTFYSYAMGWYRQAPGKERELVAAMTSDGGTYYADSVKGRFTISRDNAKNTVYLQMNSLKPEDTAVYYCAAELYYWYYYWGQGTKVTVSS | low polyreactivity
QVQLVESGGGLVQAGGSLRLSCAASGRTFYSYARGWYRQAPGKEREFFAAISRSGGSTYYADSVKGRFTISRDYAKNTVYLQMNSLKPEDTAVYYCAARYRRDDYDYWGQGTQVTVSS | high polyreactivity
QVQLVESGGGLVQAGGSLRLSCAASGRTFYSYTMGWYRQAPGKERELVAAINRGGSTYYADSVKWRFTISRDNAKNTVYLQMNSLKPEDTAVYYCNADNWVYLYDYWGQGTQVTVSS | low polyreactivity
QVQLVESGGGLVQAGGSLRLSCAASGRTFYTNAKGWYRQAPGKERELVAAISSDSSTNYADSVKGRLTISRDNAKNTVYLQMNSLKPEDTAVYYCNKVRQGWADYEYWGQGSQVTVSS | low polyreactivity
QVQLVESGGGLVQAGGSLRLSCAASGRTFYTNAMGWSRQAPGKERELVAAISRGGGRTYYADSVKGRFTISRDNAKNTVYLQMNSLKPEDTAVYYCAASPYQGQGREYYYWGQGTQVTVSS | high polyreactivity
QVQLVESGGGLVQAGGSLRLSCAASGRTFYTNTMGWYRPAPGKERELVAAISYSGSSTYYADSVKGRFTISRDNAKNTVYLQMNSLKPEDTAVYYCNAVRYYRYYYWGQGTQVTVSS | low polyreactivity
QVQLVESGGGLVQAGGSLRLSCAASGRTFYTVYAMGWYRQAPGKERELVAAITRSGGSTYYADSVKGRFTISRDNAKNTLYLQMNSLKPEDTAVYYCAAAPPLAGLGGYYWGQGTQVTVSS | high polyreactivity
QVQLVESGGGLVQAGGSLRLSCAASGRTFYTYTMGWYRQAPRKEREFVAAISSSGSSTYYADSVKGRFTISRDNAKNTVYLQMNSLKPEDTAVYYCAATSYSYPGYFRYDYWGQGTQVTVSS | high polyreactivity
QVQLVESGGGLVQAGGSLRLSCAASGRTFYVKVMGWYRQEPGKERELVAVISRSDGSTTYADSVKGRFTISRDNAKNTVYLQMNSLKPEDTAVYYCNTDLPLGSGVLPDWELFDYWGQGTQVTVSS | low polyreactivity
QVQLVESGGGLVQAGGSLRLSCAASGRTFYVNAMGGYRQAPGKERELVARITSGGSTYYADSVKGRFTISRDNAKNTVYLQMNSLKPEDTAVYYCAKKYIGYQEWIHSTRRYDYWGQGTQVTGSS | low polyreactivity
QVQLVESGGGLVQAGGSLRLSCAASGRTFYVNTMGWYRQAPGKERELVASITWSDGSTYYADSVKGRFTISRDNAKNTVYLQMNSLKPDDSAVYYCAASGRFIVNAYRSWGRRRYEYWGQGTQVTVSS | high polyreactivity
QVQLVESGGGLVQAGGSLRLSCAASGRTFYVYAMGWYRQAPGKERELVAAITFSGGSTYYADSVKGRFTISRDNAKNPVYLQMNSLKPEDTAVYYCNRRSYVPDRFRHDSSVIYDYWGQGTQVTVSS | low polyreactivity
QVQLVESGGGLVQAGGSLRLSCAASGRTFYVYAMGWYRQAPGKERELVATISRGGSTTYADSVKGRFTISRDNAKNTVYLQMNSLKPEDTAVYYCATELLGGRRTVAYYWGQGTQVTVSS | low polyreactivity
QVQLVESGGGLVQAGGSLRLSCAASGRTFYVYAMGWYRQAPGNERELVATISRSGGGTYYADSVKGRFTISRDNAKNTVYLQMNSLTPEDTAVYYCAAKPYRRDYGYWGQGTQVTVSS | high polyreactivity
QVQLVESGGGLVQAGGSLRLSCAASGRTFYVYNMGCYRQAPGKERELVAGISYSGGSTYYADSVKGRFTISRDNAKNTVYLQMNSLKPEDTAVYYSNAELYFPYFDGKTRLGGYWGLGTQVTVSS | low polyreactivity
QVQLVESGGGLVQAGGSLRLSCAASGRTFYWNAMGWYRQAPGKERELVAAISDGGGSTYYADSVKGRFTISRDNAKNTVYLHMNSLKPEDTAVYYCNTPDNQDKPYPGYDYWGQGTQVTVSS | low polyreactivity

Sequence | polyreactivity (PSR sort gate)
QVQLVESGGGLVQAGGSLRLSCAASGRTFYWNAMGWYRQAPGKERELVASINGGGSTYYADSVKGRFTISRDNAKNTVYLQMNSLKPEDTAVYYCNVRYYFPRYQQRYQLNEYYYWGQGTQVTVSS | low polyreactivity
QVQLVESGGGLVQAGGSLRLSCAASGRTFYYNAMGWYRQAPGKERELVAAISYRGGSTYYADSVKGRFTISRDNAKNTVYLQMNSLKPEDTAVYYCAKYPHPLKYPGYPSEFDYWGQGTQVTVSS | low polyreactivity
QVQLVESGGGLVQAGGSLRLSCAASGRTFYYNAMGWYRQAPGKERELVAAITYSGGSTYYADSVKGRFTISRDNAKNTVYLQMNSLKPEDTAVYYCAADVYRPAGNWEHYYWGQGNQVTVSS | low polyreactivity
QVQLVESGGGLVQAGGSLRLSCAASGRTFYYNAMGWYRQAPGKERELVATITSGGSTNYADSVKGRFTISRDYAKNTVYLQMNSLKPEDTAVDYCATTRYRTYADVNSRYGYWGQGTQVTVSS | low polyreactivity
QVQLVESGGGLVQAGGSLRLSCAASGRTFYYNGMGWYRQAPGKERELVATITNGGSTNYADSVKGRFTISRDNAKNTVYLQMNSLKPEDTAVYYCAKTLASDCYDYWGQGTQVTVSS | low polyreactivity
QVQLVESGGGLVQAGGSLRLSCAASGRTFYYYAKGWYRQAPGKERELVARISRCGSTNYADSVKGRFTISRDNAKNTVYLQMISLKPEDSAVYYCAAGWRGGRYRYFAYDYWGQGTQVTVSS | high polyreactivity
QVQLVESGGGLVQAGGSLRLSCAASGRTFYYYAMGGYRQAPGKERELVAAIRGGGGSTYADSVKGRFTISRDNAKNTVYLQMNSLKPEDTAVYYCNVVRTGRYPGFLTFDYWGQGTQVTVSS | high polyreactivity
QVQLVESGGGLVQAGGSLRLSCAASGRTFYYYAMGWHRQAPGKERELVARIRSGGSTNYADSVKGRFTISRDNAKNTVYLQMNSLKPEDTAVYYCAAVRPPTPSRRREDYWGQGTQVTVSS | low polyreactivity
QVQLVESGGGLVQAGGSLRLSCAASGRTFYYYAMGWYRQAPGKEREFVAAIRFSGGNTYYADSVKGRFTISRDNAKNTVYLQMNSLKPEDTAVYYCAARRLLYKYWTGGPYDYWGQGTQVTVSS | high polyreactivity
QVQLVESGGGLVQAGGSLRLSCAASGRTFYYYAMGWYRQAPGKERELVAAIRWSTGSTYYADSVKGRFTISRDNAKNTVYLQMNSLKPEDTAVYYCAADTWYIQWGYYWGQGTQVTVSS | low polyreactivity
QVQLVESGGGLVQAGGSLRLSCAASGRTFYYYAMGWYRQAPGKERELVAAISSSTGRTYYADSVKGRFTISRDNAKNTVYLQMNSLKPEDTAVYYCAKYRVFGYQFDYWGQGTQVTVSS | high polyreactivity
QVQLVESGGGLVQAGGSLRLSCAASGRTFYYYAMGWYRQAPGKERELVAAITSTGGSTYYADSVKGRFTISRDNAKNTVYLQMNSLKPDDTAVYYCAADQVWGYDSWGQGPQVTVSS | low polyreactivity
QVQLVESGGGLVQAGGSLRLSCAASGRTFYYYAMGWYRQAPGKERELVASITSGDGTYYADSVKGRFTISRDNAKNTVYLQMNSLKPEDTAVYYCAADIFYKFSYYPWYPYRDYYYSGQGTQVTVSS | low polyreactivity
QVQLVESGGGLVQAGGSLRLSCAASGRTFYYYAMGWYRQEPGKERELVAAISWSGGRTYYADSVKGRFTISRDNAKNTVYLQMNSLNPEDTAVYYCNAEPPRGYTVSSGGEMDYWGQGTQVTVSS | low polyreactivity
QVQLVESGGGLVQAGGSLRLSCAASGRTFYYYAMVWYRQAPGKERELVAAINSGGSTNYADSVKGRFTISRDNAKNTVYLQMNSLKPEDTAVYYCAKRAYTTVYGPVNYGFNYWGQGTQVTVSS | low polyreactivity
QVQLVESGGGLVQAGGSLRLSCAASGRTFYYYARGWYRQAPGKERELVAAINTRGVSTYYEDSVKGRFTISRDNAKNTVYLQMNSLKPEDTAVYYCNKGFSYGRDYWGQGTQVTVSS | high polyreactivity
QVQLVESGGGLVQAGGSLRLSCAASGRTFYYYTMGWYRQAPGKERELVAAITHGGSTYYADSVKGRFTISRDNAKNTVYLQMNSLKPEDTAVYYCNAVYHYPYEYWGQGTQVTVSS | high polyreactivity
QVQLVESGGGLVQAGGSLRLSCAASGRTFYYYTMGWYRQAPGQERELVAAISVSGGTTYYADSVKGRFTISRDNAKYSVYLQMNSLKPDDTAVYYCAAGDGWGRRYYWGQGTQVNVSS | high polyreactivity
QVQLVESGGGLVQAGGSLRLSCAASGRTFYYYVMGWYRQAPGKERELVAAISARDGSTYYADSVKGRFTISRDNAKNTVYLQMNSLKPEDTAVYYCNVRALYTRRYDYWGQGTQVTVSS | high polyreactivity
QVQLVESGGGLVQAGGSLRLSCAASGRTGVNAMGWYRQAPGKERGLVAAINTSVGRTYYADSVKGRFTISRDNAKNTVYLQMNSLKQEDTAVYYCNTDRLGAARYDYWGHGTQVTVSS | low polyreactivity
QVQLVESGGGLVQAGGSLRLSCAASGRTIAAYAMGWYRQAPGKERELVAAISRSGGSTYYADSVKGRFTISRDNAKNTVYLQMNSLKPEDTAVYYCAAYYIVSSLFGYWGQGTQVTVSS | high polyreactivity
